Measurements reported in patent publication US9879306B2, “Luciferase biosensors for cAMP” (PROMEGA CORPORATION, priority 2008, dated 2018).
Positions count from the first letter of the chain named. Names may count otherwise.

T1: GPR41 (Homo sapiens, UniProt O14843)
T1 sequence (O14843 1-346): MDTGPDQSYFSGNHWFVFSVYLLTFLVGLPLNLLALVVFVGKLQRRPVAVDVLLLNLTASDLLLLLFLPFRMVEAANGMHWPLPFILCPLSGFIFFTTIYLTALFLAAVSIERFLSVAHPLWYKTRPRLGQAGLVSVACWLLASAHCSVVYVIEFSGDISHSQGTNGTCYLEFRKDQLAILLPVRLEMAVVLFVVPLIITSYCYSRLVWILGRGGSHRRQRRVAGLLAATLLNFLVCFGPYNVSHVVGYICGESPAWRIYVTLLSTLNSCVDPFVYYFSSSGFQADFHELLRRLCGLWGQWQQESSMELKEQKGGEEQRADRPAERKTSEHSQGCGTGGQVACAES

B1: 7A1: cAMP biosensor, RIIβB E284A and V316I, linker …; SEQ ID NO:113, 114 (protein)
chain: MPGAVGKVVPFFEAKVVDLDTGKTLGVNQRGELCVRGPMIMSGYVNNPEATNALIDKDGWLHSGDIAYWDEDEHFFIVDRLKSLIKYKGYQVAPAELESILLQHPNIFDAGVAGLPDDDAGELPAAVVVLEHGKTMTEKEIVDYVASQVTTAKKLRGGVVFVDEVPKGLTGKLDARKIREILIKAKKGSSGGSGGSGGGMYESFIESLPFLKSLEFSERLKVVDVIGTKVYNDGEQIIAQGDSADSFFIVESGEVKITMKRKGKSEVEENGAVEIARCSRGQYFGELALVTNKPRAASAHAIGTVKCLAMDVQAFERLLGPCMEIMKRNIATYEEQLVALFGTNMDIVAKNIKKGPAPFYPLEDGTAGEQLHKAMKRYALVPGTIAFTDAHIEVDITYAEYFEMSVRLAEAMKRYGLNTNHRIVVCSENSLQFFMPVLGALFIGVAVAPANDIYNERELLNSMGISQPTVVFVSKKGLQKILNVQKKLPIIQKIIIMDSKTDYQGFQSMYTFVTSHLPPGFNEYDFVPESFDRDKTIALIMNSSGSTGLPKGVALPHRTACVRFSHARDPIFGNQIIPDTAILSVVPFHHGFGMFTTLGYLICGFRVVLMYRFEEELFLRSLQDYKIQSALLVPTLFSFFAKSTLIDKYDLSNLHEIASGGAPLSKEVGEAVAKRFHLPGIRQGYGLTETTSAILITPEGV
notes: cAMP biosensor, RIIβB E284A and V316I, linker …
B2: GS358: parent cAMP biosensor Met-(FF luc 359-544)-GSSGGSGGSGGG-(RIIβB)-(FFluc4-355)-Val; SEQ ID NO:111, 112 (protein)
chain: B1 chain
B3: 4H7: 7A1 biosensor with F407Y in RIIβb; SEQ ID NO:35, 36 (protein)
chain: B1 chain with S190N, G191W, G192D, G195C, G197R, G198E, E218A, V250I, F341Y
B4: 16A2: 7A1 biosensor with F518L in Luc2.0; SEQ ID NO:60, 61 (protein)
chain: B1 chain with F161L, S190N, G191W, G192D, G195C, G197R, G198E, E218A, V250I
B5: 7A1-ILQY: 7A1 background with Luc2.0 F369I, F518L, K541Q and RIIβB F407Y; SEQ ID NO:31, 32 (protein)
chain: MPGAVGKVVPFIEAKVVDLDTGKTLGVNQRGELCVRGPMIMSGYVNNPEATNALIDKDGWLHSGDIAYWDEDEHFFIVDRLKSLIKYKGYQVAPAELESILLQHPNIFDAGVAGLPDDDAGELPAAVVVLEHGKTMTEKEIVDYVASQVTTAKKLRGGVVLVDEVPKGLTGKLDARKIREILIQAKKGSNWDSGCSREGMYESFIESLPFLKSLEFSARLKVVDVIGTKVYNDGEQIIAQGDSADSFFIIESGEVKITMKRKGKSEVEENGAVEIARCSRGQYFGELALVTNKPRAASAHAIGTVKCLAMDVQAFERLLGPCMEIMKRNIATYEEQLVALYGTNMDIVAKNIKKGPAPFYPLEDGTAGEQLHKAMKRYALVPGTIAFTDAHIEVDITYAEYFEMSVRLAEAMKRYGLNTNHRIVVCSENSLQFFMPVLGALFIGVAVAPANDIYNERELLNSMGISQPTVVFVSKKGLQKILNVQKKLPIIQKIIIMDSKTDYQGFQSMYTFVTSHLPPGFNEYDFVPESFDRDKTIALIMNSSGSTGLPKGVALPHRTACVRFSHARDPIFGNQIIPDTAILSVVPFHHGFGMFTTLGYLICGFRVVLMYRFEEELFLRSLQDYKIQSALLVPTLFSFFAKSTLIDKYDLSNLHEIASGGAPLSKEVGEAVAKRFHLPGIRQGYGLTETTSAILITPEGV
B6: 7A1-ILY: 7A1 background with Luc2.0 F369I, F518L and RIIβB F407Y; SEQ ID NO:27, 28 (protein)
chain: B5 chain with Q184K, F210I, F248Y, F359L

Tests used:
Format in all cases: cell-based
[1] = test system: HEK293 cells; experiment: Luminescence and fold response of biosensor clones in HEK293 cells after isoproterenol or FSK; conditions: for Isoproterenol-5 minutes Induced / Isoproterenol-5 minutes Resp: 5 minutes after isoproterenol; for Forskolin (FSK) Induced / Forskolin (FSK) Resp: 15 minutes after FSK; for Isoproterenol-15 minutes Induced / Isoproterenol-15 minutes Resp: 15 minutes after isoproterenol; for Isoproterenol-5 minutes Resp / Forskolin (FSK) Resp / Isoproterenol-15 minutes Resp: RLU induced / RLU uninduced; for Isoproterenol-5 minutes Uninduced / Forskolin (FSK) Uninduced / Isoproterenol-15 minutes Uninduced: uninduced cells; for Forskolin (FSK) Uninduced / Isoproterenol-15 minutes Uninduced: 15 minutes
Experimental: B. HEK293 cells were transiently transfected with plasmid DNAs encoding various biosensor mutants as above. These biosensor mutants contained the E284A and V316I mutation in the RIIbetaB cAMP binding domain and the modified linker sequence 7A1 (GSNWDSGCSREG; SEQ ID NO: 129). The clones also contained the additional mutations outlined in Table 5. Cells were equilibrated for 2 hours at room temperature with 2 mM EF-Luc. Luminescence was measured 5 and 15 minutes after addition of the isoproterenol and 15 minutes after addition of FSK. Fold response (response; Resp.) was calculated by dividing relative light units (RLUs) from induced cells by the RLUs from uninduced cells. As a control, the biosensor GS358 and 7A1 were included.

[2] = molecular target: T2, dopamine D2 receptor (Homo sapiens, UniProt P14416); experiment: Forskolin, dopamine and haloperidol responses of biosensor clones in HEK293 cells stably expressing the dopamine D2 receptor; conditions: for Dopamine Induced: 3 μM FSK + 0.3 μM dopamine; for Dopamine Induced / Forskolin (FSK) Induced / Forskolin (FSK) Uninduced: 10 minutes; for Forskolin (FSK) Induced: 3 μM FSK; for Halo Induced: 10 μM Haloperidol pre-treatment, then 3 μM FSK + 0.3 μM dopamine; for Dopamine Response: RLU agonist-treated / forskolin-treated; for Forskolin (FSK) Response: RLU forskolin-treated / untreated; for Halo Response: RLU haloperidol then FSK + dopamine / FSK + dopamine alone; for Forskolin (FSK) Uninduced: untreated (media alone)
T2 construct: expressed in transfected cells
T2 sequence (P14416 whole entry, species assumed): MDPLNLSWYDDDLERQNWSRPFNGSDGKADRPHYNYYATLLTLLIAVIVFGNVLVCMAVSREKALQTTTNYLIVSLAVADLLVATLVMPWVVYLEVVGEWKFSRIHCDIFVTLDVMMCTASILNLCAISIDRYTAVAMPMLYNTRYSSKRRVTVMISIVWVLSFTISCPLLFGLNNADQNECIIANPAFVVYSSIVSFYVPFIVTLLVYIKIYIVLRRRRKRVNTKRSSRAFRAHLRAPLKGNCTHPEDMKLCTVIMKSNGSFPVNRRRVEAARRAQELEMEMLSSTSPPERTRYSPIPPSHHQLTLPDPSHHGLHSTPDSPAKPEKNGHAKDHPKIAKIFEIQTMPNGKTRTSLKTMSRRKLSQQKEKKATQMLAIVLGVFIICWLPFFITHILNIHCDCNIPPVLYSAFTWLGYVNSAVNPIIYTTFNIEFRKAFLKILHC
Excerpt: To measure changes in the intracellular concentration of cAMP, HEK293 cells are transiently transfected with mutant cAMP biosensors followed by treatment with compounds known to increase or decrease the intracellular cAMP concentration through GPCR activation of Gs- or Gi-coupled receptors, respectively.
HEK293 cells stably expressing the dopamine D2 receptor were transiently transfected with the mutant cAMP biosensors from Example VIIB. Cells were also transfected with either 7A1 (Example III) or GS358 (parent biosensor) as controls. Cells were equilibrated for 2 hours at room temperature using 2 mM EF-luc. Antagonist assay wells were pre-treated for 10-15 minutes at room temperature with 10 μM Haloperidol (Halo). Next, the following reagents were added to their respective wells: media alone to “untreated” samples; 3 μM forskolin (FSK) to “forskolin-treated” samples; 3 μM FSK+0.3 μM dopamine to “agonist-treated” samples; and 3 μM FSK+0.3 μM dopamine to the aforementioned wells pre-treated with Halo. The cells were then incubated at room temperature for 10 minutes and luminescence was measured. Fold response for FSK was calculated by dividing the RLU from “forskolin-treated” cells by the RLU from the “untreated” cells. Fold response for dopamine treatment was calculated by dividing the RLU from the “agonist-treated” cells by the RLU from the “forskolin-treated” cells. Fold response for Haloperidol treatment was calculated by dividing the RLU from the cells treated with haloperidol then forskolin plus dopamine by the RLU of cells treated with forskolin plus dopamine alone.

[3] = test system: HEK293 cells; experiment: Screening of linker variant cAMP biosensors in HEK293 cells with isoproterenol
Excerpt: The linker variants of Example III were inserted into a CP-FF construct as in Example II. The construct further comprised a mutant RIIβb cAMP binding site containing the substitutions at […] and […]. As in Example II, the constructs were first screened in E. coli to identify linker sequences which provided improved luminescence, improved response or both. The linker variants were then screened for improved luminescence signal, response to isoproterenol, or both in HEK293 cells. On day 1, 15,000 HEK293 cells were plated to the individual wells of a 96-well plate. On day 2, cells were transiently transfected with plasmid DNAs encoding a cAMP biosensor variant comprising a variant linker sequence using the LT1 reagent from Mirus Bio. […] Isoproterenol was added to 10 μM final concentration to the individual wells, and luminescence was monitored continuously in time (Mithras luminometer; 1 second integration time). Once measurements were complete (>30 minutes), cells were lysed, and Renilla luciferase activity was measured. Biosensor luminescence (FF RLU) was normalized using the Renilla luminescence signal (RL norm), and fold-induction (response) was calculated by dividing the normalized biosensor luminescence from isoproterenol-treated wells by the normalized luminescence from control wells that received no compound addition (Figure). […]

[4] = test system: GPR41; experiment: Sodium proprionate CRC with biosensor variants in HEK293 cells stably expressing GPR41; conditions: ratio of RLU of FSK treated well to untreated well
Experimental: (§1) After 24 hours, the cells were transiently transfected with one of the cAMP biosensor variants (Tables 7A and 7B). After another 24 hours, the cells were equilibrated for 2 hours at room temperature using 5 mM EF-luc in CO2 independent media with 10% FBS. Prior to the addition of the compounds, luminescence was measured. The compounds (12× stock in CO2 independent media without FBS) were then added to the cells. For GPR41 expressing cells, sodium proprionate CRC was added. […] The cells were allowed to incubate another 30 minutes and luminescence read on a Varioskan Flash. EC50 values and fold responses were calculated for each of the clones with each of the compounds with or without FSK. In addition, variants […]7 (Example VIIB), 16A2 (Example VIIB) and GS358 were also screened.

[5] = molecular target: T1, GPR41; experiment: as above; conditions: for Fold Response Na proprionate + FSK(1 μM): with FSK 1 μM; for Fold Response Na proprionate: without FSK, ratio of induced to uninduced signal
Experimental: as §1

Molecule | Isoproterenol-5 minutes Induced [1] | Forskolin (FSK) Induced [1] | Isoproterenol-15 minutes Induced [1] | Isoproterenol-5 minutes Resp [1] | Forskolin (FSK) Resp [1] | Isoproterenol-15 minutes Resp [1] | Isoproterenol-5 minutes Uninduced [1] | Forskolin (FSK) Uninduced [1] | Isoproterenol-15 minutes Uninduced [1] | Dopamine Induced [2] | Forskolin (FSK) Induced [2] | Halo Induced [2] | Dopamine Response [2] | Forskolin (FSK) Response [2] | Halo Response [2] | Forskolin (FSK) Uninduced [2] | Fold Signal Change [4] | Fold Response Na proprionate + FSK(1 μM) [5] | Fold Response Na proprionate [5] | other results
B1 | 73287 RLU | 161755 RLU | 173340 RLU | 60 fold | 47 fold | 51 fold | 1231 RLU | 3415 RLU | 3415 RLU | 1860 RLU | 4709 RLU | 5429 RLU | 0.38 fold | 15 fold | 2.9 fold | 307 RLU | – | – | – | Signal Improvement ([3]; fold improvement in luminescent signal over parental GS358 with E284A and V316I, HEK293, 10 μM isoproterenol): 2.4 fold; Response Improvement ([3]; fold improvement in response to isoproterenol over parental GS358 with E284A and V316I, HEK293, 10 μM): 1.4 fold
B2 | 41610 RLU | 195335 RLU | 184150 RLU | 8 fold | 13 fold | 12 fold | 4943 RLU | 14895 RLU | 14895 RLU | 5153 RLU | 9166 RLU | 9218 RLU | 0.56 fold | 5 fold | 1.9 fold | 1704 RLU | 9.48 (n = 8) fold | 3.19 (n = 7) fold | 2.56 (n = 8) fold | –
B3 | 42467 RLU | 88555 RLU | 207210 RLU | 86 fold | 33 fold | 78 fold | 493 RLU | 2665 RLU | 2665 RLU | 583 RLU | 3180 RLU | 2778 RLU | 0.18 fold | 14 fold | 4.8 fold | 230 RLU | 93.6 fold | 2.98 fold | 1.94 fold | –
B4 | 44890 RLU | 153670 RLU | 141135 RLU | 85 fold | 76 fold | 70 fold | 527 RLU | 2025 RLU | 2025 RLU | 95 RLU | 4117 RLU | 223 RLU | 0.33 fold | 28 fold | 2.3 fold | 147 RLU | 89.7 fold | 3.76 fold | 2.73 fold | –
B5 | – | – | – | – | – | – | – | – | – | – | – | – | – | – | – | – | 220.1 fold | 8.13 fold | 2.57 fold | –
B6 | – | – | – | – | – | – | – | – | – | – | – | – | – | – | – | – | 194.6 fold | 8.96 fold | 2.49 fold | –
